From PMC10269814, “New Perspectives on Escherichia coli Signal Peptidase I Substrate Specificity: Investigating Why the TasA Cleavage Site Is Incompatible with LepB Cleavage” (Microbiology Spectrum, 2023)
Values after ≈ are worked out from the molar mass of the structure shown. Values joined by “and” are separate entries in the source; they are usually repeats but may differ in a detail not shown here. Equal values may be shown once. Ends that are not written are not given here. Peptide text beside a SMILES is read from it.

Assays:
[1] = biological target: T1, LepB Δ2-76 His-SUMO (Escherichia coli signal peptidase I) (Escherichia coli, UniProt P00803); assay: biochemical; assay type: binding
T1 construct: purchased Sapphire Bioscience
Description: Surface plasmon resonance (SPR) analysis on a Pioneer FE system (Sartorius, Göttingen, Germany) was used to determine the on- and off-rates of custom peptides (Mimotopes, Mulgrave, VIC, Australia) with purchased LepB (Sapphire Bioscience, Redfern, NSW, Australia) ([9]). Briefly, LepB Δ2-76 His-SUMO was immobilized onto a CDH chip (Sartorius, Göttingen, Germany) onto flow cells 1 and 3 by an amine coupling reaction using 0.2 M 1-ethyl-3-[(3-dimethylamino)propyl]-carbodiimide (EDC) and 0.05 M N-hydroxysuccinimide (NHS). The EDC-NHS mix was caused to flow over at 15 μL/min for 100 s, LepB was injected at 10 μL/min for 10 min, and then ethanolamine was caused to flow over at 10 μL/min for 10 min. Flow cell 2 was used as a reference cell, and no LepB was injected over this cell. The assay was performed using a OneStep assay method with 75% of the loop. Peptides were caused to flow over the flow cells at a concentration of 50 μM at a flow rate of 50 μL/min with a dissociation period of 180 s. A regeneration cycle at a flow rate of 50 μL/min for 3 min with Tris-EDTA (TE) was completed after every cycle. Data were collected in triplicate, and analysis was completed with the Qdat analysis software (Sartorius, Göttingen, Germany; see Fig. S1 in the supplemental material).

LepB Δ2-76 = biological target: T2, LepB Δ2-76 (Escherichia coli, UniProt P00803); assay: biochemical
T2 construct: made in house; host or cells: E. coli BL21(DE3)
Description: The cleavage of the fluorescent peptide, Dabcyl-[…]-Edans, by LepB leads to an increase in relative fluorescence over time. If the ability of LepB to cleave this peptide is inhibited, the increase in relative fluorescence per second should decrease in a concentration-dependent manner.
A reaction in a 100-μL reaction mixture in phosphate-buffered saline (PBS) (pH 7.4) containing 0.1% Triton X-100 was initiated by adding 450 nM LepB Δ2-76 to a black, clear-bottom 96-well plate (Corning, Corning, NY, USA). In triplicate, wells contained a 2-fold serial dilution of the peptide being tested from 0.5 mg/mL and 10 μM fluorescent peptide, Dabcyl-[…]-Edans (Mimotopes, Mulgrave, VIC, Australia). While the peptide containing the two fluorophores is intact, the Edans emission is quenched by Dabcyl through FRET. However, once the peptide is cleaved by LepB, the fluorophores are no longer in close enough proximity for the transfer of energy and the fluorescence emission of Edans is recorded. The cleavage of the fluorescent peptide by LepB was recorded using an excitation wavelength of 340 nm and an emission wavelength of 490 nm recorded every 2 min for 30 min in a Tecan Infinite 200 Pro plate reader. Data were analyzed using the formula [(RFU2 − RFU1)/(time2 − time1)] = RFU/s on the linear portion of the reaction (where RFU stands for relative fluorescent units), and the absolute IC50 was determined using the simple linear regression analysis on Prism 9.

[2] = system: Staphylococcus aureus USA300; assay type: cell-based; conditions: strain USA300, rich medium, subinhibitory DMSO (5%), overnight 37°C
Description: (§1) The resistance to the peptides was determined using MIC methods as previously described ([31]). Briefly, 5 × 10^5 cells were added to a 96-well plate which contained a peptide 2-fold serially diluted in either M9 minimal medium containing 5% DMSO and 0.2% glucose or Mueller-Hinton medium containing 5% DMSO. Plates were incubated overnight at 37°C, and the MIC result was scored as the last set of wells that contained no growth of bacteria. Bacteria tested were E. coli MG1655 containing an empty pBAD plasmid, E. coli BL21(DE3) containing an empty pET15b plasmid, S. aureus FDA209, and S. aureus USA300. Peptides 08 and 10 were tested from 0.5 mg/mL, and peptide 11 was tested from 1 mg/mL.

[3] = system: Staphylococcus aureus FDA209; assay type: cell-based; conditions: strain FDA209, rich medium, subinhibitory DMSO (5%), overnight 37°C
Description: as §1

[4] = system: E. coli MG1655 (empty pBAD) and E. coli BL21(DE3) (empty pET15b); assay: MIC assay against E. coli; assay type: cell-based, Escherichia coli; conditions: rich (Mueller-Hinton) and M9 minimal media, with or without subinhibitory DMSO (5%); overnight 37°C; peptides 08 and 10 from 0.5 mg/mL, 11 from 1 mg/mL
Description: as §1

[5] = biological target: LepB Δ2-76 (Escherichia coli (strain DH5α)) (UniProt P00803)
[6] = biological target: LepB Δ2-76 His-SUMO (Escherichia coli) (UniProt P00803); assay: SPR; LepB Δ2-76 His-SUMO amine-coupled (EDC/NHS) to a CDH chip, Pioneer FE; OneStep method with 75% of the loop; peptides flowed at 50 μM, 50 μL/min, 180 s dissociation; regeneration with Tris-EDTA; triplicate

Molecule: TWAAFN [Peptide 07]
- Kd [1]: 5.38 ± 0.2 µM
- IC50 (LepB Δ2-76): 1970 µM

Molecule: GGTWAAFE [Peptide 05]
- IC50 (LepB Δ2-76): 967 µM

Molecule: GGGTWAAIE [Peptide 06]
- Kd [1]: 17.3 ± 0.2 µM
- IC50 (LepB Δ2-76): 4520 µM

Molecule: VGGGTWAAFETL [Peptide 02]
- Kd [1]: 12.8 ± 2.55 µM
- IC50 (LepB Δ2-76): 1010 µM

Molecule: GGGTWAAFEEGK [Peptide 01]
- Kd [1]: 10.3 µM
- IC50 (LepB Δ2-76): 1600 µM

Molecule: GGTWAAFNDV [Peptide 03]
- Kd [1]: 8.71 ± 2.14 µM
- IC50 (LepB Δ2-76): 1160 µM

Molecule: C[C@H](N)C(=O)N[C@@H](C)C(=O)N[C@@H](Cc1ccccc1)C(=O)N[C@@H](CCC(=O)O)C(=O)O [Peptide 11] (H-AAFE-OH)
- Kd [1]: 18.5 ± 0.62 µM
- IC50 (LepB Δ2-76): 3790 µM
- MIC [2]: 1000 µg/mL (≈ 2290 µM)
- MIC [3]: 1000 µg/mL (≈ 2290 µM)

Molecule: TWAAIE [Peptide 08]
- Kd [1]: 0.7 ± 0.35 µM
- IC50 (LepB Δ2-76): 647 µM

Molecule: VGGGTWAAIEEGKL [Peptide 04]
- Kd [1]: 8.83 ± 2.59 µM
- IC50 (LepB Δ2-76): 1680 µM

Molecule: GGTWAAIE [Peptide 10]
- Kd off-rate ([1]; SPR OneStep, LepB amine-coupled to CDH chip, peptide 50 μM, dissociation 180 s, mean ± standard error, triplicate): 0.00421 s⁻¹ and 0.00421 ± 0.00049 s⁻¹
- Ka on-rate ([1]; SPR OneStep, Pioneer FE, LepB amine-coupled to CDH chip, peptide 50 μM, flow 50 μL/min, mean ± standard error, triplicate): 4770 ± 590 M⁻¹ s⁻¹
- MIC [4]: No MIC was observed

B1: peptide 05 (peptide)
peptide: GGTWAAFE
- IC50 of LepB cleavage of the fluorescent peptide Dabcyl-DAPPAKAA-Edans (FRET enzyme assay) [5]: 810 µg/mL

B2: peptide 04 (peptide)
peptide: VGGGTWAAIEEGKL
- koff [6]: 0.17 s⁻¹
- kon [6]: 26400 M⁻¹ s⁻¹
- IC50 of LepB cleavage of the fluorescent peptide Dabcyl-DAPPAKAA-Edans (FRET enzyme assay) [5]: 2340 µg/mL

B3: peptide 02 (peptide)
peptide: VGGGTWAAFETL
- koff [6]: 0.0147 s⁻¹
- kon [6]: 1140 M⁻¹ s⁻¹
- IC50 of LepB cleavage of the fluorescent peptide Dabcyl-DAPPAKAA-Edans (FRET enzyme assay) [5]: 1220 µg/mL

B4: peptide 01 (peptide)
peptide: GGGTWAAFEEGK
- koff [6]: 0.0434 s⁻¹
- kon [6]: 4440 M⁻¹ s⁻¹
- IC50 of LepB cleavage of the fluorescent peptide Dabcyl-DAPPAKAA-Edans (FRET enzyme assay) [5]: 1930 µg/mL

B5: peptide 08 (peptide)
peptide: TWAAIE
- koff [6]: 0.00239 s⁻¹
- kon [6]: 2500 M⁻¹ s⁻¹
- IC50 of LepB cleavage of the fluorescent peptide Dabcyl-DAPPAKAA-Edans (FRET enzyme assay) [5]: 446 µg/mL

B6: peptide 07 (peptide)
peptide: TWAAFN
- koff [6]: 0.321 s⁻¹
- kon [6]: 60400 M⁻¹ s⁻¹
- IC50 of LepB cleavage of the fluorescent peptide Dabcyl-DAPPAKAA-Edans (FRET enzyme assay) [5]: 1390 µg/mL

B7: peptide 11 (peptide)
peptide: AAFE
- koff [6]: 0.442 s⁻¹
- kon [6]: 15900 M⁻¹ s⁻¹
- IC50 of LepB cleavage of the fluorescent peptide Dabcyl-DAPPAKAA-Edans (FRET enzyme assay) [5]: 1660 µg/mL

B8: peptide 06 (peptide)
peptide: GGGTWAAIE
- koff [6]: 0.0208 s⁻¹
- kon [6]: 1200 M⁻¹ s⁻¹
- IC50 of LepB cleavage of the fluorescent peptide Dabcyl-DAPPAKAA-Edans (FRET enzyme assay) [5]: 3890 µg/mL

B9: peptide 03 (peptide)
peptide: GGTWAAFNDV
- koff [6]: 0.947 s⁻¹
- kon [6]: 146000 M⁻¹ s⁻¹
- IC50 of LepB cleavage of the fluorescent peptide Dabcyl-DAPPAKAA-Edans (FRET enzyme assay) [5]: 1210 µg/mL
